In article PMC12203938:
“And” between values parts separate entries of the source, which are not always exact repeats. Equal values may be shown once.

Assays:
[1] = molecular target: chloride intracellular channel 1, CLIC1^C24 (C59A, C89A, C178A, C191A, C223A), Alexa Fluor 647-labelled (UniProt O00299); experiment: single-molecule TIRF colocalisation and photobleaching step counting; AF647-labelled CLIC (2 μM) with AF488-labelled sHsp (4 μM) in 50 mM phosphate buffer pH 7.4 at 42°C for up to 7 h; aliquots cross-linked with BS3 (250 μM), diluted to 1-20 nM; His-tagged CLIC held through a biotinylated anti-6X His antibody on a NeutrAvidin coverslip; imaged at 20°C; chance colocalisation subtracted
[2] = molecular target: firefly luciferase FLUC^(ΔCys, K141C, K491C), biotinylated, Alexa Fluor 647-labelled (firefly) [luciferase: P08659]; experiment: single-molecule TIRF colocalisation and photobleaching step counting; AF647-labelled client (2 μM) with AF488-labelled sHsp or SSB (4 μM) in 50 mM phosphate buffer pH 7.4 at 42°C for up to 7 h; aliquots cross-linked with BS3 (250 μM), diluted to 1-20 nM; biotinylated FLUC or rhodanese held on a NeutrAvidin coverslip; imaged at 20°C; chance colocalisation subtracted
[3] = molecular target: rhodanese^(K135C, K174C) with AviTag, biotinylated, Alexa Fluor 647-labelled (UniProt P00586); experiment: as above
[4] = molecular target: αB-crystallin with an additional C-terminal cysteine (αB-c_(C176)), Alexa Fluor 488-labelled (human) (UniProt P02511); experiment: as above

Substance: Hsp27 cysteine mutant (Hsp27_(C137S,C207)), Alexa Fluor 488-labelled (from UniProt P04792 1-205) (natural protein)
- percent of client molecules colocalised with the sHsp (first hour) [1]: 15%
- stoichiometry N ([1]; scale: Hsp27:CLIC): 0.29 and 0.69
- FLUC subunits in complexes with Hsp27 (1 h) (FLUC subunits/complex) [2]: 5
- FLUC subunits per molecule, in and out of complexes with Hsp27 (0 h) [2]: 2 subunits
- median FLUC subunits in complexes with Hsp27 (0.6 h) (subunits per complex) [2]: 20
- percent of client molecules colocalised with the sHsp (after 1 h) [2]: 17%
- percent of client molecules colocalised with the sHsp (within 0.6 h) [2]: 35%
- stoichiometry N ([2]; scale: Hsp27:FLUC): 0.68 and 1.75 and 1.24
- percent of client molecules colocalised with the sHsp (within 0.3 h) [3]: 40%

Substance: single-stranded binding protein (SSB), fluorescently labelled, non-chaperone control (from UniProt P0AGE0 1-178) (natural protein)
- percent colocalised [3]: < 3%

Substance: αB-crystallin with an additional C-terminal cysteine (αB-c_(C176)), Alexa Fluor 488-labelled (from UniProt P02511 1-175) (natural protein)
- percent of client molecules colocalised with the sHsp (within 0.3 h) [1]: 20%
- FLUC subunits in complexes with αB-c [2]: 8 subunits
- colocalised αB-c subunits per complex (1 h) (subunits/complex) [2]: 13
- percent of client molecules colocalised with the sHsp (within 0.3 h) [2]: 40%
- stoichiometry N (subunits/oligomer) [4]: 6
